This is an account of results in the supplement of paper PMC9170038.

In this data set the test system is MS2 coat protein. Briefly: apparent KD of MS2 coat protein; designed switch direction (-1 OFF switch, 1 ON switch): 1; higher = weaker reporter binding. The method in brief: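 On Illumina chips, designed RNA switches with common flanks were made by stalled E. coli RNA polymerase. Titrations with SNAP-549-labelled MS2 coat protein, doubling from 0.7 or 1.5 nM to 3 µM, were done with no input, with 200 uM small-molecule ligand, or with an oligonucleotide input. Apparent KD is the median per design over clusters, from curve fits of normalised cluster fluorescence.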

Where [1] appears, read: input ligand: microRNA oligo, concentration not stated.
[2] abbreviates: Eterna round: R95, input ligand: FMN 200 uM.
The mark [3] stands for this setting: Eterna round: R95, input ligand: microRNA oligo, concentration not stated.
The mark [4] stands for this setting: Eterna round: R95, input ligand: none.

“AUUAGUAAUGCAGGAUAUGAUUAACAUGAGGAUCACCCAUGUGGUGUUGUGAGUAAGGAGAGUGAUCAGAAGGGCAUUUUUUUU [JMF's solution 28] (Eterna round: R96, puzzle: Same State NG 2)”: the “apparent KD of MS2 coat protein” value reads like this: (input ligand: FMN 200 uM) 979 nM; under setting [1], 411 nM; (input ligand: none) 444 nM.

“AUUAUACAUGAGGAUCACCCAUGUAAUUAAUCUAGUAAGAUCUAGGAUAUCAGCUCGUUUAGAGCUGAGAAGGAGAUCACAUGU [SSNG3/20-D3] (Eterna round: R96, puzzle: Same State NG 3)”: the “apparent KD of MS2 coat protein” value under setting [1] turned out to be 38 nM.

Take “AUUAUACAUGAGGAUCACCCAUGUAAUUAAUUAAUUAAGAUCUAGGAUAUCAGCUCGAAUAGAGCUGAGAAGGAGAUCACAUGU [SSNG3/20-C1] (Eterna round: R96, puzzle: Same State NG 3)”: the “apparent KD of MS2 coat protein” value under setting [1] is 24.2 nM.

For the sequence “AUUAUACAUGAGGAUCACCCAUGUCAACAAAGUCGAGGAUAUGGGCAAAUAAAAUAAGAACCAGAAGGCGAAUAAU [salish99_ss1_r3_069] (Eterna round: R96, puzzle: Same State 1)”, the “apparent KD of MS2 coat protein” value reads like this: (input ligand: FMN 200 uM) 69.2 nM; under setting [1], 189 nM; (input ligand: none) 293 nM.

In the case of “AUUAUACAUGAGGAUCACCCAUGUCAACAAAGUCGAGGAUAUGGGCAAAUAAAAUAAGAACCAGAAGGCGAAUAAU [salish99_ss1_r3_069] (puzzle: Same State 1)”, the “apparent KD of MS2 coat protein” value is, setting by setting: under setting [2], 51.3 nM; under setting [3], 155 nM; under setting [4], 259 nM.

As for “AUUAUACAUGAGGAUCACCCAUGUCAAUGUAGUCGAGGAUAUGGGCAGCUGUGAGGCGUACUAGAAGGCGAAGAGA [Mat - Same State 1 - Mod of JL - D9] (puzzle: Same State 1)”, the “apparent KD of MS2 coat protein” value came out at 59.9 nM under setting [2], 192 nM under setting [3] and 222 nM under setting [4].

As to “AUUAUUAAUGCAGGAUAUGAUUAACAUGAGGAUCACCCAUGUGGUGUUGUGAGUAAGGAGAGUGAUCAGAAGGGCAGUUUUUUU [JMF's solution 8] (Eterna round: R96, puzzle: Same State NG 2)”, the “apparent KD of MS2 coat protein” value was 614 nM (input ligand: FMN 200 uM), 227 nM under setting [1] and 262 nM (input ligand: none).

Regarding “AUUAUUAAUGCAGGAUAUGAUUAACAUGAGGAUCACCCAUGUGGUGUUGUGAGUAAGGAGAGUGAUCAGAAGGGCAUUUCUUUU [JMF's solution 11] (Eterna round: R96, puzzle: Same State NG 2)”, the “apparent KD of MS2 coat protein” value runs as follows: (input ligand: FMN 200 uM) 468 nM; under setting [1], 241 nM; (input ligand: none) 373 nM.

Turning to “AUUAUUAAUGCAGGAUAUGAUUAACAUGAGGAUCACCCAUGUGGUGUUGUGAGUAAGGAGAGUGAUCAGAAGGGCAUUUUUUUC [JMF's solution 20] (Eterna round: R96, puzzle: Same State NG 2)”, the “apparent KD of MS2 coat protein” value is, setting by setting: (input ligand: FMN 200 uM) 672 nM; under setting [1], 369 nM; (input ligand: none) 399 nM.

Turning to “AUUAUUAGUGCAGGAUAUGAUUAACAUGAGGAUCACCCAUGUGGUGUUGUGAGUAAGGAGAGUGAUCAGAAGGGCAUUUUUUUU [JMF's solution 21] (Eterna round: R96, puzzle: Same State NG 2)”, the “apparent KD of MS2 coat protein” value reads like this: (input ligand: FMN 200 uM) 659 nM; under setting [1], 333 nM; (input ligand: none) 406 nM.

In the case of “AUUAUUUCUGCAGGAUAUGAUUAACAUGAGGAUCACCCAUGUGGUGUUGUGAGUAAGGAGAGUGAUCAGAAGGGCAUUUUUUUU [JMF's solution 62] (Eterna round: R96, puzzle: Same State NG 2)”, the “apparent KD of MS2 coat protein” value is 630 nM (input ligand: FMN 200 uM), 211 nM under setting [1] and 313 nM (input ligand: none).

Consider “AUUGCUAGCACAGGAUAUCAUGCGAAAAUUGCGUGAGAAGGGUGUACUCUGUCAUUGCCGGAGGACAUGAGGAUCACCCAUGUC [SameState NG1 #82] (Eterna round: R96, puzzle: Same State NG 1)”, for which the “apparent KD of MS2 coat protein” value runs as follows: (input ligand: FMN 200 uM) 218 nM; under setting [1], 33.6 nM; (input ligand: none) 37.5 nM.

Take “AUUUAACAAGCUUUUUGCUCGUCUUAUAAACAUGAGGAUCACCCAUGUAAUAGCGUGAGAGUAAAUUAAUAAAUAAU [JMF 83] (puzzle: Sensor for hsa-mir-208a)”: the “apparent KD of MS2 coat protein” value stood at 14.5 nM under setting [2], 44.7 nM under setting [3] and 13.5 nM under setting [4].

On to “AUUUAACAAGCUUUUUGCUCGUCUUAUAAACAUGAGGAUCACCCAUGUAAUAGCGUGAGAGUAAUUAUUUAAAUAAU [JMF 94] (puzzle: Sensor for hsa-mir-208a)”, for which the “apparent KD of MS2 coat protein” value stood at 16.1 nM under setting [2], 37.5 nM under setting [3] and 14.7 nM under setting [4].

Turning to “AUUUCUAGCACAGGAUAUCAUGCGAAAAUUGCGUGAGAAGGGUGGACGCUGUCAUUCACGGAAGACAUGAGGAUCACCCAUGUC [SameState NG1 #76] (Eterna round: R96, puzzle: Same State NG 1)”, the “apparent KD of MS2 coat protein” value reads like this: (input ligand: FMN 200 uM) 48 nM; under setting [1], 53.4 nM; (input ligand: none) 102 nM.

For “AUUUUUAAUGCAGGAUAUGAUUAACAUGAGGAUCACCCAUGUGGUGUUGUGAGUAAGGAGAGUGAUCAGAAGGGCAGUUUUUUU [JMF's solution 79] (Eterna round: R96, puzzle: Same State NG 2)”, the “apparent KD of MS2 coat protein” value runs as follows: (input ligand: FMN 200 uM) 543 nM; under setting [1], 315 nM; (input ligand: none) 499 nM.

Regarding “AUUUUUAAUGCAGGAUAUGAUUAACAUGAGGAUCACCCAUGUGGUGUUGUGAGUAAGGAGAGUGAUCAGAAGGGCAUAUUUUUU [JMF's solution 80] (Eterna round: R96, puzzle: Same State NG 2)”, the “apparent KD of MS2 coat protein” value runs as follows: (input ligand: FMN 200 uM) 1170 nM; under setting [1], 443 nM; (input ligand: none) 863 nM.

As for “AUUUUUAAUGCAGGAUAUGAUUAACAUGAGGAUCACCCAUGUGGUGUUGUGAGUAAGGAGAGUGAUCAGAAGGGCAUUUUGUUU [JMF's solution 83] (Eterna round: R96, puzzle: Same State NG 2)”, the “apparent KD of MS2 coat protein” value is 747 nM (input ligand: FMN 200 uM), 400 nM under setting [1] and 687 nM (input ligand: none).

“AUUUUUCAUGCAGGAUAUGAUUAACAUGAGGAUCACCCAUGUGGUGUUGUGAGUAAGGAGAGUGAUCAGAAGGGCAUUUUUUUU [JMF's solution 94] (Eterna round: R96, puzzle: Same State NG 2)”: the “apparent KD of MS2 coat protein” value was determined as 837 nM (input ligand: FMN 200 uM), 342 nM under setting [1] and 503 nM (input ligand: none).

With “CAAGCUUGGGUCGUCCCGCUCGUCUACAAACAUGAGGAUCACCCAUGUAAAAUCUAAAAUUCAAAUCUAUCUCUAAA [Getienre] (puzzle: Sensor for hsa-mir-208a)”, the “apparent KD of MS2 coat protein” value is, setting by setting: under setting [2], 515 nM; under setting [3], 20.9 nM; under setting [4], 563 nM.

With “CAAGCUUGGGUCGUCCCGCUCGUCUACAAACAUGAGGAUCACCCAUGUAUGCUCUUCGCAUCAAUUCUAUCUCUUGG [Quxeteor] (puzzle: Sensor for hsa-mir-208a)”, the “apparent KD of MS2 coat protein” value by setting is: under setting [2], 51.5 nM; under setting [3], 51.3 nM; under setting [4], 54.1 nM.

“CAGCACUGUCGAGAGGAUAUGCGGUGAUGGACAUGAGGAUCACCCAUGUUAGCGACAGCAUCACGGCAGAAGGCUCUACUGCUGC [Soteed Omei mod 32] (puzzle: Same State 2)”: the “apparent KD of MS2 coat protein” value under setting [3] turned out to be 12.3 nM.

With “CAGUGCUGUCGAGAGGAUAUGCGGUGAUGGACAUGAGGAUCACCCAUGUUAGCGACAGCAUCACGGCAGAAGGCUCUACCCACUG [Soteed Omei mod 45] (puzzle: Same State 2)”, under setting [3], the “apparent KD of MS2 coat protein” value was determined as 16.7 nM.

For the sequence “CCAAUGUACAAUUUAGAUCUACAUGAGGAUCACCCAUGUACAGAGGAUAUCAGCUCGUGUAGAGCUGAGAAGGCUGAAUUAAUU [SSNG3/3-A4] (Eterna round: R96, puzzle: Same State NG 3)”, the “apparent KD of MS2 coat protein” value is 117 nM (input ligand: FMN 200 uM), 117 nM under setting [1] and 179 nM (input ligand: none).

With “CCAGCUACUCACAUGAGGAUCACCCAUGUCUAGGAUAUAGUAGAGGAUAUUGGCGGAUGGAAGACCGAGAAGGCUACCUCCUGA [Eternabot solution 49] (Eterna round: R96, puzzle: Same State NG 3)”, the “apparent KD of MS2 coat protein” value turned out to be 17.9 nM (input ligand: FMN 200 uM), 14.4 nM under setting [1] and 18.3 nM (input ligand: none).

With “CCAGGACAUGAGGAUCACCCAUGUGCUUAAUGUGGAGAAUCUCAGGAUAUCAUGAGGAUUACCCAUGAGAAGGGAGAUCCGAGG (Eterna round: R96, puzzle: Same State NG 3)”, the “apparent KD of MS2 coat protein” value reads like this: (input ligand: FMN 200 uM) 437 nM; under setting [1], 300 nM; (input ligand: none) 483 nM.

Turning to “CCAUAACGGUGAGGAUAUCGUUGCGAUAAGUGACGAGAAGGCAUUCAUGUGAAAUAAACAUACAUGAGGAUCACCCAUGUUGUA [Omei SS(NG)1 Bv1] (Eterna round: R96, puzzle: Same State NG 1)”, the “apparent KD of MS2 coat protein” value (input ligand: FMN 200 uM) stood at 23.7 nM, the “apparent KD of MS2 coat protein” value under setting [1] turned out to be 57.2 nM and the “apparent KD of MS2 coat protein” value (input ligand: none) came out at 57.7 nM.

As to “CCGAUGAUAGGACAGGAUAUGACUGUCGUCACAUGAGGAUCACCCAUGUCCCGGCAAUGCCACCGUUAGAAGGGUCCCAUCUCGG [Uslainarin] (Eterna round: R96, puzzle: Same State 2)”, the “apparent KD of MS2 coat protein” value is, setting by setting: (input ligand: FMN 200 uM) 18.2 nM; under setting [1], 18.6 nM; (input ligand: none) 23.8 nM.

Regarding “CCGAUGAUAGGACAGGAUAUGACUGUCGUCACAUGAGGAUCACCCAUGUCCCGGCAAUGCCACCGUUAGAAGGGUCCCAUCUCGG [Uslainarin] (puzzle: Same State 2)”, the “apparent KD of MS2 coat protein” value under setting [3] was determined as 15.6 nM.
